Experiments:
[1] = target: T1, Marburgvirus (Marburg Musoke) nucleoprotein, polymeric (Marburg virus, Musoke, UniProt P27588); experiment: ELISA; conditions: both partners purified
T1 construct: source: HEK 293T, transient transfection, purified (CsCl gradient)

[2] = target: the molecule itself; experiment: transmission electron microscopy of HA-NP and sdAb mixtures

B1: anti-MARV NP sdAb C monomer (pecan126) (VHH)
VHH: KVQLQESGGGLVQVGGSLRLSCKASGFTFRSSAMGWYRRAPGKQRELVASLTTTGTADYGDFVKGRFTISRDNAENTVDLHMNSLKPEDTAVYYCHEDPYGMESLRYWGQGTQVTVSS
notes: also called anti-MARV sdAb C; source: E. coli HBV88 periplasm, purified (IMAC, gel filtration)
- binding result [1]: binds

B2: HA-tagged Marburgvirus (Marburg Musoke) nucleoprotein, polymeric (natural protein)
chain: MDLHSLLELGTKPTAPHVRNKKVILFDTNHQVSICNQIIDAINSGIDLGDLLEGGLLTLCVEHYYNSDKDKFNTSPVAKYLRDAGYEFDVIKNADATRFLDVSPNEPHYSPLILALKTLESTESQRGRIGLFLSFCSLFLPKLVVGDRASIEKALRQVTVHQEQGIVTYPNHWLTTGHMKVIFGILRSSFILKFVLIHQGVNLVTGHDAYDSIISNSVGQTRFSGLLIVKTVLEFILQKTDSGVTLHPLVRTSKVKNEVASFKQALSNLARHGEYAPFARVLNLSGINNLEHGLYPQLSAIALGVATAHGSTLAGVNVGEQYQQLREAAHDAEVKLQRRHEHQEIQAIAEDDEERKILEQFHLQKTEITHSQTLAVLSQKREKLARLAAEIENNIVEDQGFKQSQNRVSQSFLNDPTPVEVTVQARPMNRPTALPPPVDDKIEHESTEDSSSSSSFVDLNDPFALLNEDEDTLDDSVMIPGTTSREFQGIPEPPRQSQDLNNSQGKQEDESTNRIKKQFLRYQELPPVQEDDESEYTTDSQESIDQPGSDNEQGVDLPPPPLYAQEKRQDPIQHPAANPQDPFGSIGDVNGDILEPIRSPSSPSAPQEDTRMREAYELSPDFTNDEDNQQNWPQRVVTKKGRTFLYPNDLLQTNPPESLITALVEEYQNPVSAKELQADWPDMSFDERRHVAMNL
notes: also called MARV HA-NP; HA-NP
- binding result [2]: binds

B3: anti-MARV NP sdAb A monomer (pecan126) (VHH)
VHH: EVKLQESGGGLVQAGESLRLSCAVPPEVFDIRTVAWYRQVPLGKGRELLSSITPWNKTTYEDSVKDRFTISRDNAKYTVYLQMNDLKPEDTAVYYCAQGWGIASMRYWGQGTQVTVSS
notes: also called anti-MARV sdAb A; source: E. coli HBV88 periplasm, purified (IMAC, gel filtration)
- binding result [1]: binds

B4: anti-MARV NP sdAb B monomer (pecan126) (VHH)
VHH: KVQLQESGGGLVQAGGSLRLSCAASGGTFSINTLGWYRRAPGKEREFVARISSGGITRYADSVKGRFTISRDNGKNTVYLDMNSLKPEDTAVYYCMYRNWGGGLDVYWGQGTQVTVSS
notes: also called anti-MARV sdAb B; source: E. coli HBV88 periplasm, purified (IMAC, gel filtration)
- binding result [1]: binds

— paper PMC5623874 (Frontiers in Immunology, 2017)
